Tests used:
[1] = test system: KLC2^TPR; assay: ITC of KLC2^TPR binding to GST3C-JIP3^LZ, two-stage sequential model; design: species or system murine; conditions: for K, macroscopic association constant / ΔH / –TΔS: ITC, 25°C, 0.5 M NaCl, pH 7.5, globally fitted over four experiments; for K, macroscopic association constant: 25 mM HEPES, 5 mM MgCl2, 1 mM TCEP
Protocol: For ITC studies with the KLC2^TPR and GST-JIP3^LZ, the high KLC2^TPR concentrations required to use this protein as titrant necessitated a higher salt concentration than that used for crystallographic studies. The KLC2^TPR was prepared as above for crystallographic studies but the final size exclusion chromatography step was performed in 500 mM NaCl, 25 mM HEPES, 5mM MgCl2, 1 mM TCEP (final pH 7.5). The GST-JIP3^LZ protein was bound to glutathione sepharose resin in batch as described above for the JIP3^LZ. The GST-JIP3^LZ protein was eluted in 0.25 M NaCl, 50 mM TRIS.HCl, 1 mM TCEP, 25 mM glutathione; final pH 7.5, and purified by size exclusion chromatography on a Superdex 200 16/600 column (GE Healthcare) equilibrated in 500 mM NaCl, 25 mM HEPES, 5mM MgCl2 and 1 mM TCEP (final pH 7.5).
To study the binding of the KLC2^TPR to GST3C-JIP3^LZ, the proteins were prepared by size exclusion chromatography in 0.5 M NaCl, 25 mM HEPES, 5 mM MgCl2, 1 mM TCEP, final pH 7.5. ITC measurements were performed on a MicroCal iTC200 calorimeter (Malvern) at 25°C, with a differential power of 5.0 μcal/s and stirring at 750 rpm. Experiments consisted of an initial sacrificial 0.5 μl injection, followed 120 s later by 19 injections of 2 μl spread over 4 s, spaced 120 s apart. Thermograms were integrated and corrected for heats of dilution using NITPIC (http://biophysics.swmed.edu/MBR/software.html). The resulting isotherms were analysed in SEDPHAT (http://www.analyticalultracentrifugation.com/sedphat/) ([Keller et al., 2012], [Zhao et al., 2015]). The isotherms from these experiments were globally fitted with the A + B + B → AB + B → ABB model. […] Figures were prepared using GUSSI (http://biophysics.swmed.edu/MBR/software.html).

[2] = Secondary structure content calculated from the KLC2^TPR:JIP3^LZ crystal structure (STRIDE)
Protocol: All CD spectra were recorded on a Chirascan CD spectrometer (Applied Photophysics) in quartz cuvettes with a 0.1 cm path length. Data were recorded at 20°C between 260 - 180 nm in 1 nm increments and a 2 nm bandwidth over an average of two scans. The KLC2^TPR-myc and Trp-JIP3^LZ proteins were dialysed extensively into 20 mM potassium phosphate pH 7.5, 0.5 mM DTT. Spectra were collected from KLC2^TPR-myc samples at concentrations of 0.29, 0.14 and 0.086 mg/ml. Trp-JIP3^LZ spectra were collected at 0.15, 0.074 and 0.044 mg/ml. One spectrum was recorded for each sample at each concentration and background-corrected by subtraction of a buffer-only spectrum. […] KLC2^TPR-myc and Trp-JIP3^LZ spectra were analysed using the SELCON3 and CONTIN algorithms, respectively, using reference dataset set 4 ([Sreerama et al., 1999], [van Stokkum et al., 1990]). For each protein, the mean percentage of each secondary structure type, and the corresponding standard deviation, was calculated from the values obtained from the three concentrations. The secondary structure content for KLC2^TPR-myc and Trp-JIP3^LZ were calculated using the KLC2^TPR:JIP3^LZ crystal structure using the STRIDE server (http://webclu.bio.wzw.tum.de/cgi-bin/stride/stridecgi.py) ([Frishman and Argos, 1995]).

[3] = SEC-MALLS; type: physicochemical; conditions: 25 mM HEPES pH 7.5, 0.1 M NaCl, 1 mM TCEP
Protocol: Fifty microliters of JIP3^LZ was injected onto a WTC-030S5 column, pre-equilibrated with buffer containing 25 mM HEPES pH 7.5, 0.1 M NaCl and 1 mM TCEP at a flow rate of 1 ml/min. Data were recorded using a DAWN 8+ multi-angle light scattering (LS) detector, an Optilab T-rEX differential refractive index (dRI) detector and UV absorbance (UV) detector (Wyatt Technology) and analyzed with the Astra 6.2 software package provided by the manufacturer (Wyatt Technology).

[4] = CD spectroscopy; type: physicochemical; conditions: 20°C, 20 mM potassium phosphate pH 7.5, 0.5 mM DTT, SELCON3, 0.29, 0.14 and 0.086 mg/ml
Protocol: All CD spectra were recorded on a Chirascan CD spectrometer (Applied Photophysics) in quartz cuvettes with a 0.1 cm path length. Data were recorded at 20°C between 260 - 180 nm in 1 nm increments and a 2 nm bandwidth over an average of two scans. The KLC2^TPR-myc and Trp-JIP3^LZ proteins were dialysed extensively into 20 mM potassium phosphate pH 7.5, 0.5 mM DTT. Spectra were collected from KLC2^TPR-myc samples at concentrations of 0.29, 0.14 and 0.086 mg/ml. Trp-JIP3^LZ spectra were collected at 0.15, 0.074 and 0.044 mg/ml. One spectrum was recorded for each sample at each concentration and background-corrected by subtraction of a buffer-only spectrum. Corrected spectra were converted to units of mean residue ellipticity and deconvolved using the Dichroweb server ([Whitmore and Wallace, 2008]). KLC2^TPR-myc and Trp-JIP3^LZ spectra were analysed using the SELCON3 and CONTIN algorithms, respectively, using reference dataset set 4 ([Sreerama et al., 1999], [van Stokkum et al., 1990]). For each protein, the mean percentage of each secondary structure type, and the corresponding standard deviation, was calculated from the values obtained from the three concentrations. The secondary structure content for KLC2^TPR-myc and Trp-JIP3^LZ were calculated using the KLC2^TPR:JIP3^LZ crystal structure using the STRIDE server (http://webclu.bio.wzw.tum.de/cgi-bin/stride/stridecgi.py) ([Frishman and Argos, 1995]).

[5] = stage A + B + B → BA + B (first KLC2^TPR)
[6] = stage BA + B → BAB (second KLC2^TPR)

B1: GST-JIP3^LZ: GST and 3C site fused to murine JIP3 isoform A leucine zipper, residues 417-487 (protein, UniProt Q9ESN9 417-487, looked up, fragment)
chain: MGKEVGNLLLENSQLLETKNALNVVKNDLIAKVDQLSGEQEVLKGELEAAKQAKVKLENRIKELEEELKRV
modifications: isoform A N-terminal GST tag, 3C site
thermodynamic driving force ([1]; binding of the first KLC2^TPR): enthalpically driven
thermodynamic driving force ([1]; binding of the second KLC2^TPR): entropically driven
K, macroscopic association constant [1, 5]: 0.1317 µM⁻¹
ΔH [1, 5]: -18.756 kcal/mol
–TΔS [1, 5]: 11.772 kcal/mol
K, macroscopic association constant [1, 6]: 0.1315 µM⁻¹
ΔH [1, 6]: 0.952 kcal/mol
–TΔS [1, 6]: -7.935 kcal/mol
cooperativity of binding of two KLC2^TPR subunits ([1]; suggested by very similar macroscopic association constants): positive cooperativity

B2: JIP3^LZ: JIP3 leucine zipper domain, residues 417-487 of murine JIP3 isoform A (protein)
chain: WMGKEVGNLLLENSQLLETKNALNVVKNDLIAKVDQLSGEQEVLKGELEAAKQAKVKLENRIKELEEELKRV
modifications: left off: GST, N-terminal, cleaved
notes: JIP3 leucine zipper domain, residues 417-487 of murine JIP3 isoform A
α-helical content calculated from crystal structure [2]: 77%
oligomeric state in solution [3]: stable dimer

B3: KLC2^TPR-myc: murine KLC2 residues 191-480 with … fused to the C-terminus (protein)
chain: GYEIPARLRTLHNLVIQYASQGRYEVAVPLCKQALEDLEKTSGHDHPDVATMLNILALVYRDQNKYKDAAHLLNDALAIREKTLGKDHPAVAATLNNLAVLYGKRGKYKEAEPLCKRALEIREKVLGKFHPDVAKQLSNLALLCQNQGKAEEVEYYYRRALEIYATRLGPDDPNVAKTKNNLASCYLKQGKYQDAETLYKEILTRAHEKEFGSVNGENKPIWMHAEEREESKDKRRDRRPMEYGSWYKACKVDSPTVNTTLRTLGALYRPEGKLEAAHTLEDCASRSRKQ
modifications: left off: His6-SUMO, N-terminal, cleaved | myc (…), C-terminal, kept
secondary structure content by CD versus crystal structure [4]: very similar to that calculated from the KLC2^TPR:JIP3^LZ crystal structure
